Here are results for 1 molecule from patent US8008452B2, “Phosphorylated Ndr kinase” (Novartis Forschungesstiftung, Zweigniederlassung Friedrich …, priority 2002, dated 2011).

Series [1] has as its system GST-NDR1. Description: GST-NDR1 in vitro autophosphorylation, incorporated 32P by Cerenkov counting. It is filed as biochemical, human. On the procedure:
BL21-DE3-pRep4 E. coli strain was transformed with the pGEX-2T_NDR1 wild type or mutant plasmids. BL21-DE3 is a protease-deficient E. coli strain and pRep4 is a Laclq repressor-bearing plasmid both available commercially. Optionally, if desired, an E. coli strain comprising GroESL can be used, which expresses a chaperone protein that stabilizes the kinase. Mid-logarithmic phase cells were induced with 0.5 mM isopropyl beta-D-thiogalactopyranoside (IPTG) for 4 hours at 30° C. Bacteria were lysed using a French press in the presence of 1 mg/ml lysosyme, and the fusion proteins were purified on glutathione-agarose (Amersham Pharmacia Biotech) as described by the manufacturers. Recombinant proteins were assayed for kinase activity as described below and autophosphorylation was determined after SDS-PAGE separation either by Cerenkov counting or by exposure to a PhosphorImager screen followed by analysis with ImageQuant software (Molecular Dynamics).
In brief, 1 microgram of purified GST-NDR1 (in solution ˜0.5 microM) wild type, kinase dead (K118A), and alanine mutants of phosphorylation residues Thr74, Ser281, and Thr444 were autophosphorylated for 2 hours in vitro without further additions or in the presence of 1 mM CaCl2 and 10 microM bovine S100B. Proteins were visualized on SDS gels using Coomassie Blue R-350 stained SDS-PAGE gel, and [gamma-^32P]ATP-labelled proteins were visualized by autoradiography of the gels developed on a Phosphorimager screen. The amount of incorporated ^32P was quantified by Cerenkov counting.

For series [2], the system named is HA-NDR1. Briefly: HA-NDR1 kinase assay on 12CA5 immunoprecipitates from transfected, treated COS-1 cells. It is filed as cell-based, human. Particulars: COS-1 cells. On the procedure:
In some experiments, the cells were treated for 60 min with 1 microM okadaic acid in 0.1% N,N-dimethylformamide (DMF) (Alexis Corp.), 50 microM BAPTA-AM (1,2-bis (o-aminophenoxy) ethane-N,N,N′,N′-tetraacetic acid tetra (acetoxy-methyl)ester) in 0.1% diimethylsulfoxide (DMSO; Sigma), or 20 microM thapsigargin in 0.1% DMSO (Alomone) 24 hours after transfection.
Transfected and treated COS-1 cells were washed once with ice-cold PBS, and harvested by rubber policeman in 1 ml ice-cold PBS containing 1 mM Na3VO4 and 20 mM beta-glycerophosphate before lysis in 500 microliters of IP buffer (20 mM Tris-HCl pH 8.0, 150 mM NaCl, 1% Nonidet P-40, 10% glycerol, 1 mM Na3VO4, 20 mM beta-glycerolphosphate, 1 microM microcystin-LR, 50 mM NaF, 0.5 mM PMSF, 4 microM leupeptin, 1 mM benzamidine, and 1 tablet/10 ml IP of Complete protease inhibitors (Roche)). Lysates were centrifuged at 20 000 g for 20 min and triplicate aliquots (200 microg) of supernatant were precleared with protein A-Sepharose (Amersham Pharmacia Biotech) for 60 min and mixed subsequently for 3 h at 4° C. with 12CA5 antibody prebound to protein A-Sepharose (˜1 microg antibody bound to 2 microl beads). The beads were then washed twice with IP buffer, once for 10 min with IP buffer containing 1 M NaCl, once again for 10 min with IP buffer, and finally twice with 20 mM Tris-HCl pH 7.5 containing 4 microM leupeptin and 1 mM benzamidine. […] After 60 min incubation at 30° C., 15 microliters of supernatant were removed, and phosphate incorporation into the substrate peptide determined as described for GST-NDR1 above. […]
To test whether hMOB1 plays a role in NDR activation, myc-hMOB1 or the empty vector was cotransfected with HA-NDR1 in COS1 cells and treated with OA. […] The reactions were resolved on a 10% SDS PAGE and the radioactivity visualised by using a phosphoimager.

B1: S281A: NDR1 alanine mutant of phosphorylation residue Ser281; GST fusion or HA-tagged (protein)
chain: MAMTGSTPCSSMSNHTKERVTMTKVTLENFYSNLIAQHEEREMRQKKLEKVMEEEGLKDEEKRLRRSAHARKETEFLRLKRTRLGLEDFESLKVIGRGAFGEVRLVQKKDTGHVYAMKILRKADMLEKEQVGHIRAERDILVEADSLWVVKMFYSFQDKLNLYLIMEFLPGGDMMTLLMKKDTLTEEETQFYIAETVLAIDSIHQLGFIHRDIKPDNLLLDSKGHVKLSDFGLCTGLKKAHRTEFYRNLNHSLPSDFTFQNMNSKRKAETWKRNRRQLAFATVGTPDYIAPEVFMQTGYNKLCDWWSLGVIMYEMLIGYPPFCSETPQETYKKVMNWKETLTFPPEVPISEKAKDLILRFCCEWEHRIGAPGVEEIKSNSFFEGVDWEHIRERPAAISIEIKSIDDTSNFDEFPESDILKPTVATSNHPETDYKNKDWVFINYTYKRFEGLTARGAIPSYMKAAK
modifications: left off: small tags and cut ends
notes: NDR1 alanine mutant of phosphorylation residue Ser281; GST fusion or HA-tagged
On to B1, for which the “amount of incorporated 32P (autophosphorylation), −S100B” value in series [1] (GST-NDR1 variant, 1 microgram, autophosphorylated 2 hours without further additions, pmol ATP/pmol GST-NDR1) is on record as 0.0192. For the same molecule, in series [1] (GST-NDR1 variant, 2 hours in the presence of 1 mM CaCl2 and 10 microM bovine S100B, in pmol ATP/pmol GST-NDR1), the “amount of incorporated 32P (autophosphorylation), +S100B” value is recorded as 0.028. Moreover, the “autophosphorylation rate of GST-NDR1 mutant (in words)” value in series [1] (compared with wild type) is reported as “dramatically reduced autophosphorylation rate”. Besides, the “kinase activity of HA-NDR1 variants, +OA” value in series [2] (1 microM okadaic acid 1 h) turned out to be 0.1113. Also, the “kinase activity of HA-NDR1 variants, −OA” value in series [2] (solvent alone 1 h) is 0.0357.
